The star is where a group is joined. Farnesyl = CC(C)=CCC/C(C)=C/CC/C(C)=C/C*; FAM = fluorescein label
Target: T1, K-Ras4B C-terminal peptide (Homo sapiens, also: FAM-labelled)
T1 chain: {FAM}-KKKKKKSKTKC(Farnesyl)-OMe
Experiment: fluorescence polarization

B1: PDE6D (protein)
chain: MSAKDERAREILRGFKLNWMNLRDAETGKILWQGTEDLSVPGVEHEARVPKKILKCKAVSRELNFSSTEQMEKFRLEQKVYFKGQCLEEWFFEFGFVIPNSTNTWQSLIEAAPESQMMPASVLTGNVIIETKFFDDDLLVSTSRVRLFYV
- Kd: 150 nM

— paper PMC12703448 (2025)
